US20060003931A1

Experiments:
[1] = biological target: Met-IgG fusion protein (Homo sapiens (Human)) (UniProt P08581); test: HGF β/Met-IgG competition ELISA; tracer 250 nM biotinylated wildtype HGF β
[2] = biological target: Met-IgG fusion protein (Homo sapiens (Human)) (UniProt P08581); test: HGF β/Met-IgG competition ELISA; tracer biotinylated HGF β

Chain of UniProt P08581 (P08581 25-930 limits assumed, form in doubt): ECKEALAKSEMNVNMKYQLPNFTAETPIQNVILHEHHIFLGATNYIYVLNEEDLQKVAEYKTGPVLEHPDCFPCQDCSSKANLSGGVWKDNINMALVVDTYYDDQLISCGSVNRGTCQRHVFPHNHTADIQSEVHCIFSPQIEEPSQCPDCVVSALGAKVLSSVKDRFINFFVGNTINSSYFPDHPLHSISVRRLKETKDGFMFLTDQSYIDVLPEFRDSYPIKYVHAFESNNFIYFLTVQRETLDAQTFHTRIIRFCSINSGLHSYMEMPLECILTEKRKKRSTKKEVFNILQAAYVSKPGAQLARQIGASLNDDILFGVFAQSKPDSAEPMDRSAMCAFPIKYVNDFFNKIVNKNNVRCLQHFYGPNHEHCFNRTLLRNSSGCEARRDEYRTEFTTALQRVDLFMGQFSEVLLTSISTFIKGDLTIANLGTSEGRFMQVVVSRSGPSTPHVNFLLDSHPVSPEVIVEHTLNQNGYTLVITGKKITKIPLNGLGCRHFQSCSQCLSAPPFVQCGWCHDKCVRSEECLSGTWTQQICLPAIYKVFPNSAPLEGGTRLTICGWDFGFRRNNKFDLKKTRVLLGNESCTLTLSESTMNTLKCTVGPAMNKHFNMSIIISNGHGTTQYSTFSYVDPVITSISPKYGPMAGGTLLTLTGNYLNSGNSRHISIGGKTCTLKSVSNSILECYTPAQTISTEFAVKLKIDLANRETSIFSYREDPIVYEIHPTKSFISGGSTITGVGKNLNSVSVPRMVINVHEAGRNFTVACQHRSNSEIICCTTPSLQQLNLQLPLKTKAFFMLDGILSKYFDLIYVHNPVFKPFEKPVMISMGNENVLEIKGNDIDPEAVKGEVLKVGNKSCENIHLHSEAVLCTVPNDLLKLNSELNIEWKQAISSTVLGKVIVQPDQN

## proHGF β (HGF residues Asn479 to Ser728 with R494E) (from UniProt P14210 479-728) (ligand)
[1]
  IC50: 11.6 µM
  fold reduced binding against HGF β: 13.5 fold
[2]
  relative IC50 (normalized to HGF β) (relative to HGF β): 21
